Data as given in patent US20170298096A1 (CANIMGUIDE THERAPEUTICS, published 2017).
No end group written: not given here.

T1: His-tagged P3028 (human, also: His-tag, terminus and sequence not given here)
T1 construct: in solution at 0.5 ug/mL over the peptide cards; found with anti-His-tag antibody and rabbit anti-mouse peroxidase (rampo); also called PGE73; not shown: His-tag
T1 peptide: VFDEFKPLVEEPQNLIK

B1: SEQ ID NO 361 (peptide)
peptide: KKLDTFFVKLSLATER
B2: SEQ ID NO 382 (peptide)
peptide: KKLDTFFVKLSLFNER
B3: SEQ ID NO 366 (peptide)
peptide: KKLDTFFVKLSLLTER
B4: SEQ ID NO 377 (peptide)
peptide: KKLDTFFVKLSLFGER
B5: SEQ ID NO 381 (peptide)
peptide: KKLDTFFVKLSLFMER
B6: SEQ ID NO 362 (peptide)
peptide: KKLDTFFVKLSLCTER
B7: SEQ ID NO 368 (peptide)
peptide: KKLDTFFVKLSLNTER
B8: SEQ ID NO 369 (peptide)
peptide: KKLDTFFVKLSLPTER
B9: SEQ ID NO 378 (peptide)
peptide: KKLDTFFVKLSLFHER
B10: SEQ ID NO 383 (peptide)
peptide: KKLDTFFVKLSLFPER
B11: SEQ ID NO 380 (peptide)
peptide: KKLDTFFVKLSLFLER
B12: SEQ ID NO 370 (peptide)
peptide: KKLDTFFVKLSLQTER
B13: SEQ ID NO 375 (peptide)
peptide: KKLDTFFVKLSLWTER
B14: SEQ ID NO 386 (peptide)
peptide: KKLDTFFVKLSLFWER
B15: SEQ ID NO 384 (peptide)
peptide: KKLDTFFVKLSLFSER
B16: SEQ ID NO 371 (peptide)
peptide: KKLDTFFVKLSLRTER
B17: SEQ ID NO 363 (peptide)
peptide: KKLDTFFVKLSLGTER
B18: SEQ ID NO 374 (peptide)
peptide: KKLDTFFVKLSLVTER
B19: SEQ ID NO 364 (peptide)
peptide: KKLDTFFVKLSLHTER
B20: SEQ ID NO 379 (peptide)
peptide: KKLDTFFVKLSLFIER
B21: SEQ ID NO 376 (peptide)
peptide: KKLDTFFVKLSLFFER
B22: SEQ ID NO 385 (peptide)
peptide: KKLDTFFVKLSLFVER
B23: SEQ ID NO 367 (peptide)
peptide: KKLDTFFVKLSLMTER
B24: SEQ ID NO 372 (peptide)
peptide: KKLDTFFVKLSLSTER
B25: SEQ ID NO 365 (peptide)
peptide: KKLDTFFVKLSLITER
B26: SEQ ID NO 373 (peptide)
peptide: KKLDTFFVKLSLTTER

Target: T1, His-tagged P3028
Assay: PEPSCAN chip ELISA, His-P3028 in solution;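 also: score is the raw OD at 405 nm from peroxidase colour with ABTS, imaged by CCD camera before and after staining, with wells showing air bubbles set to zero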
B1 was tested, and the “RAMPO Score” value was 525 rampo score. For B2, the “RAMPO Score” value was 599 rampo score. For B3, the “RAMPO Score” value was 448 rampo score. In the case of B4, the “RAMPO Score” value is reported as 343 rampo score. B5 was tested, and the “RAMPO Score” value was 501 rampo score. In the case of B6, the “RAMPO Score” value is reported as 400 rampo score. With B7 the “RAMPO Score” value was 862 rampo score. For B8, the “RAMPO Score” value was 696 rampo score. With B9 the “RAMPO Score” value was 463 rampo score. In the case of B10, the “RAMPO Score” value is reported as 551 rampo score. With B11 the “RAMPO Score” value was 360 rampo score. B12 was tested, and the “RAMPO Score” value was 1140 rampo score. In the case of B13, the “RAMPO Score” value is reported as 430 rampo score. With B14 the “RAMPO Score” value was 374 rampo score. For B15, the “RAMPO Score” value was 369 rampo score. With B16 the “RAMPO Score” value was 502 rampo score. B17 was tested, and the “RAMPO Score” value was 531 rampo score. With B18 the “RAMPO Score” value was 446 rampo score. In the case of B19, the “RAMPO Score” value is reported as 1050 rampo score. In the case of B20, the “RAMPO Score” value is reported as 375 rampo score. For B21, the “RAMPO Score” value was 348 rampo score. For B22, the “RAMPO Score” value was 380 rampo score. B23 was tested, and the “RAMPO Score” value was 1190 rampo score. With B24 the “RAMPO Score” value was 635 rampo score. In the case of B25, the “RAMPO Score” value is reported as 468 rampo score. For B26, the “RAMPO Score” value was 494 rampo score.
